Legend:
[1] = molecular target: HLA-A*02:06/hb2m/KILGFVF(bF)V (human); test: cell-based or functional assay
[2] = molecular target: HLA-A*02:01/hb2m/KILGFVF(bF)V (human); test: cell-based or functional assay
[3] = molecular target: HLA-A*01:01/hb2m/STAPGJLEY (peptide-loaded) (human); test: cell-based or functional assay
[4] = molecular target: HLA-A*02:01/hb2m/KILGFVFJV (peptide-loaded) (human); test: SPR, peptide-loaded HLA-A*02:01

| Binder | k2overall, fold against hTAPBPR [1] [fold] | k2overall, fold against hTAPBPR [2] [fold] | kapp of fluorescent peptide binding at 5 uM chaperone (FP) [3] [s⁻¹] | fold lower KD than hTAPBPR [4] [fold] |
| --- | --- | --- | --- | --- |
| hTAPBPR^RQ (K211R, R270Q) (other, domain: luminal domain; As m1) KPHPAEGQWRAVDVVLDCFLAKDGAHRGALASSEDRARASLVLKQVPVLDDGSLEDFTDFQGGTLAQDDPPIIFEASVDLVQIPQAEALLHADCSGKEVTCEISRYFLQMTETTVKTAAWFMANMQVSGGGPSISLVMKTPRVTKNEALWHPTLNLPLSPQGTVRTAVEFQVMTQTQSLSFLLGSSASLDCGFSMAPGLDLISVEWRLQHRGRGQLVYSWTAGQGQAVRKGATLEPAQLGMARDASLTLPGLTIQDEGTYICQITTSLYQAQQIIQLNIQASPKVRLSLANEALLPTLICDIAGYYPLDVVVTWTREELGGSPAQVSGASFSSLRQSVAGTYSISSSLTAEPGSAGATYTCQVTHISLEEPLGASTQVVPPERR | ~9 | ~60 | 0.00014 | ~7 |
| hTAPBPR^KRQ (R105K, K211R, R270Q) (other, domain: luminal domain; As m1) KPHPAEGQWRAVDVVLDCFLAKDGAHRGALASSEDRARASLVLKQVPVLDDGSLEDFTDFQGGTLAQDDPPIIFEASVDLVQIPQAEALLHADCSGKEVTCEISKYFLQMTETTVKTAAWFMANMQVSGGGPSISLVMKTPRVTKNEALWHPTLNLPLSPQGTVRTAVEFQVMTQTQSLSFLLGSSASLDCGFSMAPGLDLISVEWRLQHRGRGQLVYSWTAGQGQAVRKGATLEPAQLGMARDASLTLPGLTIQDEGTYICQITTSLYQAQQIIQLNIQASPKVRLSLANEALLPTLICDIAGYYPLDVVVTWTREELGGSPAQVSGASFSSLRQSVAGTYSISSSLTAEPGSAGATYTCQVTHISLEEPLGASTQVVPPERR | ~9 | ~60 | 0.00013 | ~7 |
